Measured values published in the nanobody polyreactivity screen of Harvey et al. (2022).

Test: yeast display, Sf9 membrane polyspecificity reagent, FACS + sequencing; frameworks hold sequencing errors
Method in brief: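 Galactose-induced (36–48 hours) yeast carrying a synthetic nanobody display library were exposed to 10% biotinylated, detergent-solubilized Sf9 membrane reagent at 4 °C for 1 hour. FACS followed streptavidin microbead enrichment, using low and high (top ~1%) gates for expression (anti-HA) and reagent binding (streptavidin). Colony PCR, MiSeq 2 × 250 sequencing and CDR-length filtering followed. Labels for polyreactivity reflect the gate of origin.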

| Sequence | polyreactivity (PSR sort gate) |
| --- | --- |
| QVQLVESGGGLVQAGGSLLLSCAGTARNFTYNAMGWYRQAPGKERELVARITSGGNTNYADSVKGRFTISRDNAKNTVYLQMNSLKPEDTAVYYGATGLFWFTNRYGSWGQGTQVTVSS | low polyreactivity |
| QVQLVESGGGLVQAGGSLLLSCASSGFIFTKYTMGWYRLAPGKERELVAAITGRGTSTYADSVKGRFSMSRDNAKNTVYLQMNSLIPEDTAVYYCAAVGWFADFLFSDINGYYWGQGTQVTVSA | low polyreactivity |
| QVQLVESGGGLVQAGGSLPLRCAASGITFYGYTMGWYRQAPGKERELVAAITSVGSTYYADSVKGRFTISRDNAKNTVYLQMNSLKPEDTAVYYCNARPKFRTYNYWGQGTQVTVSS | high polyreactivity |
| QVQLVESGGGLVQAGGSLPLSCAASASIFSYYDMGWYRQAPGKERELVAAISWSGGSTYYADSVKGRFTISRDNAKNTVYLQMNSLKPEDTAVYYCAAGTYPYYWGQGTQVTVSS | low polyreactivity |
| QVQLVESGGGLVQAGGSLPLSCAASGITLYLYVMGWYRQAPGKEREFVAAIRWAGGSTYYADSVKGRFTISRDNAKNTVYLHMNSLKPEDTAVYYCNAEVYGYYSARRPGYEYWGQGTQVTVSS | low polyreactivity |
| QVQLVESGGGLVQAGGSLPLSCAASGRIYGSYAMGWYRQAPGKERELVADISRRGGGTYYADSVKGRFTISRDNAKNTVYLQMNSLKPEDTAFYYCAKDWYGRYYYWGQGTQVTVSS | high polyreactivity |
| QVQLVESGGGLVQAGGSLPLSCAASGRTFDANAMGWSRQAPGKERELVAAISSDGSTNYADSVKGRFTISRDNAKNTVYLQMNSLKPEDTAVYYCATDGKPLIRYDYDYWGQGTQVTVSW | high polyreactivity |
| QVQLVESGGGLVQAGGSLPLSCAASGSIFDGYAMGWYSQAPGKDRELDAGISKSGGRTYYADSVKGRFTISRDNAKNTVYLQMNSLKPEDTAVYYCATPGIRYDRVYRYDYWGQGTQVTVSS | high polyreactivity |
| QVQLVESGGGLVQAGGSLPLSCAASGSTFRYNAMGWYRQAPAKERELVAAISSGSSTNYADSVKGRFTISLDNAKNTVYLQMKSLKPEDTAVYYCARRPFYYHQLDDDYWGQGTQVTVSS | low polyreactivity |
| QVQLVESGGGLVQAGGSLPLSCAASGSTFSPYDMGWYIQAPGKDRELVAVITGSDGTYYADSVKGRFTITRDNAKNTVYVQMNSLKPEDTAVYYCATDWNFGRWYTLGVEMDYWGQGTQVTVSS | low polyreactivity |
| QVQLVESGGGLVQAGGSLPLSCAASRLIFTPYAMGWYIQAPGKERELVAAINYGGSRTYYADSVKGRFTISRDNAKNTVYLQMNSLKPEDTAVYYCAARGYTLSYVDMYYWGQGTQVTVSS | high polyreactivity |
| QVQLVESGGGLVQAGGSLPLSCASSGFTLVTYAMGWYRQAPGKERELVAAISSSGTSTYYADSVKARFTISRDNAKNTVYLQMNSLKPEDTAVYYCAVDDTHPFGPDGGGDYWGQGTQVTVSS | low polyreactivity |
| QVQLVESGGGLVQAGGSLPLSIAASGRIFHIYAMGWYRQAPGKERELVAAISGSTSYADSVKGRFTISRDNAKNTVNLQMNSLKPEDKAVYYCAARALLPNGEYWGQGTQVTVSS | low polyreactivity |
| QVQLVESGGGLVQAGGSLRFSCAASGFIFTYNAMGWYRQAPGKERELVAAITRNGVSTHYADSVKGRFTISRDNAKNSVYLQMNSLKPEDTAVYYCAADPRGWRHYYWGQGTQVTVSS | low polyreactivity |
| QVQLVESGGGLVQAGGSLRFSCAASGFIFVVNAMGGSRQAPGKEREFVAVISSSTGSTYYADSVKGRFTISRDNAKTTVYLQMNSLKPEDTAVYYCAAASRRRRPLKRMDYWGQGTQVTVSS | low polyreactivity |
| QVQLVESGGGLVQAGGSLRFSCAASGFTFSSNAMGWYRQAPGKERELVAAITASGASTYYADSVKGRFTISRDHAKNTVYLQMNSLKPEDTAVYYCAVKTSPRRYYWGQGTQVTVSS | high polyreactivity |
| QVQLVESGGGLVQAGGSLRFSCAASGFTFVYYVMGWYRQAPGKERELVAAINAGGGSTYYADSVKGRFTISRDNAKNTVYLQMNSLKPEDTAVYYCNARVRLGRNWSSYYYWGQGTQVTVSS | high polyreactivity |
